Source: the DeepSol protein solubility set

Assay: soluble on expression in E. coli; label from the status in PepcDB or PDB records

| Sequence | soluble on expression in E. coli |
| --- | --- |
| MRISKMLVTELNIYPLKSARGIALKESAVSAEGLPGDRRAMLTDPSGHFITQRELPAIATVLARHEDGGMALSRERSGEIFARPSGQRMDVAVWKSIVSANIADDETNDTLSAWLGREVKLVFFDDAAKRIASLEWTGNETPVTFADGYQILVTTTASLAALNDNMRGNGEDAVGMERFRPNIVLETEEAWAEDRWAAIEIGGIRFDLVKPCARCIMTTQDQMTGSRDVPSPMKAMGRIRMSGDRRVPGPLFGWNVTPRGEGRLSVGDVARVVEERPEGWAIKRR | soluble |
| GMTGKISALDLASGELSEPTKAYFAKCEEKLGLVPNVLKAYAFDDKKLRAFTDIYNDLMLGESGLSKLDREMIAVAVSSINHCYYCLTAHGAAVRQLSGDPALGEMLVMNFRAADLSPRQTAMLEFAVKLTEEPAKIVEADRAALRKAGFSDRDIWDIASTAAFFNMSNRVAAAIDMRPNDEYHAMAR | soluble |
| MSIKSDSRHLYLQVIDRIKRDIETGVYKEKQKLPSEFELAKQLGVSRATLREALRVLEEENIIIRRHGVGTFVNARPLFTSGIEQLSSVTDMIRQAGRKPGTIFLSSSIQQPTEDDMRRFQCRPDENLLLIERVRTADGEPVVYCLDKILCKYLPKGISYEHESLFENLHNQTHRDIAYAVARIVPLGYHEKVSPILQCDPETALLVLKQMHFDKNDEPIFYSVNYFRSDKFSFHVMRKRFSF | not soluble |
| MGSDKIHHHHHHMGEHFLLEMVDITKEFPGVKALDRVQLKVRKGSVHALMGENGAGKSTLMKILIGMYKPNEGKIIFDGEEVTFNSINDALDKGISMIHQELSPIPEMTVAENIFLGREPTFGKSGLVDNKKLIEMTRNLLESLEINIDPRKKMGELSIANTQMIEIAKAISFHSKLVIMDEPTSAITEKEVAQLFKMIESLKKKGVGIIYITHKMSELDEIADDISVFRDGKYIGTDTAKNLTRDDLIKMMVGRELNQIFDKPEPKLGEVILSVKSLTKQDYFEDVSFEVRKGEIVGFAGLMGSGRTEVLETIFGVKEAESGEIFVNGQKARIKSPQDAVKNNMGFLTEDRKLTGLFLPLSVRENMITVNIDKYINMGWLNGKRVKKDCEQQKQKLYIKTPSIEQIVENLSGGNQQKVLLARWLLKNPDILFLDEPTRGIDVGAKSEFYNLIFELASQGKAIVVVSSEMAEILGLCDRILVMHEGKVTGELTREEANQEKIMQYATGQAKMAKKLHVHNNFEQTVTANKIEIG | not soluble |
| MEKNGLFSQRIRLRHLHTFVAVAQQGTLGRAAETLNLSQPALSKTLNELEQLTGTRLFERGRLGAQLTVPGEQFLTHAVKVLDALNTAGQALNRKEDASADVVRVGALPTAALGILPAAIGRFHQQQKSTSLQVATMNNTMLLAGLKSGEIDLGIGRMSDPELMGGLNYELLFLESLKLVVRPGHPLLQETITLSRVMEWPVVVSPKGTVPRQNAEALLQSQGCKMPAGCIETLSASLSRQLTVDYDYVWFVPSGAVKEDLRQATLVSLPVPTQSAGEPIGILTRVDIPLSTGAQMLIAAIRKSMPL | not soluble |
| MRKLKYHEKKLIKKVNFLEWKREGNHRENEITYRYHMGSRDDYKKYSGLCRMVQKLTNIMKQMDPADPFRIQMTDMLLEKLYNMGVIPTRKSLTLTERLSVSSFCRRRLSTVLVHLKFAEHHKEAVTYIEQGHVRVGPETITDPAFLVTRNMEDFITWVDSSKIKRKVLEYNDTLDDYDMLA | not soluble |
| MPLTTNTILICAGGACISAGEKSVKDAFEEELRKYGLDEVVRVIETGCMGACTLGPIAVIYPESVFYQKLTPDAAREIVEEHILKGRIVEKYLYKASEGKPVPRVHEEVPFFKKQVRIVTRNLGVIDPTKIEEYIARDGYFALAKALQMKPEDVIKEIKDSGLRGRGGAGFPTGLKWELAARQKAEKKFVVCNADEGDPGAFMDRSVLEGDPHAVIEGMAIAAYAIGAQKGFVYVRAEYPLAIERLNIALNQAREYGFLGGNIMGTDFSFDIEIRIGAGAFVCGEETALMASIEGERGQPKVKPPYPVEKGLWGYPTVINNVETLANVPWIIRNGAKEFRKYGTENSPGTKVFALAGKVKNTGLVEVPMGITLRELIYEIGGGIAGDKKLKAIQTGGPSGGCIPAEYVDTPVDFESLQKLGAIMGSGGMIVMDEDDCMVDVARFFLEFTVEESCGKCTPCREGTKKMLEILEKITSGEGTEEDIEELEKLAHVVKDTSLCGLGQTAPNPVLSTLRYFRDEYLAHVKEKRCPSKKCKALISYVIDPEKCVGCTACARVCPVQCISGQVRQPHVIDQAECVRCGSCIEVCRFGAISKVTPALPVEEAVEAAALEHHHHHH | not soluble |
| AHHHHHHGSKRVNAFNDLKRIGDDKVTAIGMGTWGIGGRETPDYSRDKESIEAIRYGLELGMNLIDTAEFYGAGHAEEIVGEAIKEFEREDIFIVSKVWPTHFGYEEAKKAARASAKRLGTYIDLYLLHWPVDDFKKIEETLHALEDLVDEGVIRYIGVSNFNLELLQRSQEVMRKYEIVANQVKYSVKDRWPETTGLLDYMKREGIALMAYTPLEKGTLARNECLAKIGEKYGKTAAQVALNYLIWEENVVAIPKASNKEHLKENFGAMGWRLSEEDREMARRCV | soluble |
| LAIAAIRNLLIKNDIEILAELTEGGSAVQRVETLKPDIVIIDVDIPGVNGIQVLETLRKRQYSGIIIIVSAKNDHFYGKHCADAGANGFVSKKEGMNNIIAAIEAAKNGYCYFPFSLNRFVGSLTSDQQKLDSLSKQEISVMRYILDGKDNNDIAEKMFISNKTVSTYKSRLMEKLECKSLMDLYTFAQ | not soluble |
| MIRLSEQSPLGTGRHRKCYAHPEDAQRCIKIVYHRGDGGDKEIRRELKYYAHLGRRLKDWSGIPRYHGTVETDCGTGYVYDVIADFDGKPSITLTEFAEQCRYEEDIAQLRQLLKQLKRYLQDNRIVTMSLKPQNILCHRISESEVIPVVCDNIGESTLIPLATWSKWCCLRKQERLWKRFIAQPALAIALQKDLQPRESKTLALTSREA | soluble |
| MGSDKIHHHHHHMNMEINPSEYKILIVDDVMSNVLLLKVLLTNEKFNIVTASNGNQALDQVKKENPDLILLDVMMPDMSGFEVSQKLKADPEAAHIPIIFLTALNSTADIVKGFQVGGNDFISKPFNKEELIIRVSHQISLVAAKRIIEAKTEELKKTIIGRDKLYSVIAHDLRSPMGSIKMVLNMLILSLPKEKIGEDMYELLTMANQTTEDVFSLLDNLLKWTKSQIGKLKVVYQDIDMVEVVEGVGEIFAMVAGLKNIRLRIESPECQAVHADIDMIKTVIRNLISNAIKFSNEGSEVLIKVEESDGMSVVSVKDSGCGIDEESQKKLLHTDTHFSTFGTNNEEGSGLGLLLCQDFVVKNGGKLWFTSVKDEGSTFYFSIPLKK | not soluble |
| MGSDKIHHHHHHAAVTKTTWSDAPAREFVFVENNSDDNFFVTPGGALDPRMTGANRWTGLKYTGSGTIYQQSLGYIDNGYNTGLNANWKFDMWLENSPVSHPLTGLRCINWYAGCDMATSLILPQTTDASGFYGATVTSGGAKWMHGMMSDAFYQYLQQMPVGGSFTMTINACQTSVNYDASSGARCKDQASGNWYVRNVTHTKAANLRLINTHSLAEVFINSDGVPTLGEGNADCRTQTIGSRSGLSCKMVNYTLQTNGLSNTSIHIFPAIANSSLASAVGAYDMQFSLNGSSWKPVSNTAYYYTFNEMKSSDSIYVFFSSNFFKQMVNLGISDINTKDLFNFRFQNTTSPESGWYEFSTSNTLIIKPRDFSISIISDEYTSAPSREGYVGSGEPALDFGYIVTTSGKTAADEVLIKVTGPAQVIGGRSYCLFSSDDGTAKVPFPATLSFITRSGTTQTYDAGCDDSWRDMTDALWLTTPWTDISGEVGQMDKTTVKFSIPMDNAISLRTVDDNGWFGEVSASGEIHVQATWRNIN | not soluble |
| MGSDKIHHHHHHMAATLKLSQLISALSYALDITEGQPEGHCVRSCWIGMHIGRALGLAPQELWDLYYAILLKDLGCSSNAARICELYRTDDRSFKQDFKQVGASLPQMLGFVFSHTGTHAAGWRERAASVVQVLRRGKEMADELINTRCHRGADIARQLRFNENVANGIQYLDEHWDGSGRPLGLQRDAIPLNARIALLAQVIDVFHVTHGRHAALDEAVRRGGGWFDPELVAAFRGASRDTAFWQRLESDDIERAVLALEPAQCTVPLDEDYMDEIAEGFGQVVDSKSPFTAGHSQRVGHYADRIGEELGLSPQRRRWLKRGALLHDVGKLGVSNTILDKPGKLTPEEWEAVKLHASHTETILGRIESFAELAKVAGAHHERLDGKGYPRGLMASEIALETRVITTADIFDAIHAARPYHPENPVPETLDIMRKNLGSALDPACFEALEAVLREEDALESDAICLT | not soluble |
| MKQQGTTLPANNHTLKQYAFFAGMLSSLKKQKWRKGMSESLHLTRNGSILEITLDRPKANAIDAKTSFEMGEVFLNFRDDPQLRVAIITGAGEKFFSAGWDLKAAAEGEAPDADFGPGGFAGLTEIFNLDKPVIAAVNGYAFGGGFELALAADFIVCADNASFALPEAKLGIVPDSGGVLRLPKILPPAIVNEMVMTGRRMGAEEALRWGIVNRVVSQAELMDNARELAQQLVNSAPLAIAALKEIYRTTSEMPVEEAYRYIRSGVLKHYPSVLHSEDAIEGPLAFAEKRDPVWKGR | not soluble |
| MSLAVVRTINGDVSPDTLGVVNAHDHLIRVGAGEVYIDPDHLLDDVDKAAQEATYFVEASKSWAAGGTIIDMCPASSGRGVLKTLQVVEKVPGLQVVQATGFHQQKVYLEWRQSWVNQYTVTQIADLLIADIVEGIDRFDYMGPIVERTNVKAGVIKWATAYGKITEWEKKSGQAVAIASKETGCPINTHVTAGTCGPEQARFLVDQGVDPAKIAIGHMQRNWDPWVHEQICKLGCYVELDGTNRIKYVPDNTRVNLVKTLGEKGYGKQILLGTDSGKASYQKVYGSVSGIDYDPAVFCPRLVEDEGVDRDYVNDLLINNAATFFGFEPLAEGHHHHHH | not soluble |
| MSKPLPLVTRQGDRIVIVNGLRTPFAKQATAYHGVPAVDLGKIVVSELLARSGISSELIDQLVFGQVVQMPEAPNIAREIVLGTGMSVHTDAYSVSRACATSFQAVANVAESIIAGSVDIAIAGGADSSSVLPIGVSKALARTLVDANKARSLSQKLKLFSRLRLRDLLPVAPAVAEYSTGLRMGDTAEQMAKTYGISREDQDALALRSHQLAAEAWQQGWLHDEVMTAYIPPYREAIIEDNNIRKDSTLAQYAKLRPAFDRQHGSVTAANSTPLTDGAAAVLMMSESKAKALGLPPLGYLRSFAFSAIDVWQDMLLGPSYATPLALDRAGITLADLTLIDMHEAFAAQTLANLKMFASDTFAREKLGRSQAIGEVDMSKFNVLGGSIAYGHPFAATGARMITQTLNELRRRGGGLGLTTACAAGGLGAAMILEVE | not soluble |
| MGSDKIHHHHHHMYKLNLDIQAFLANDWQQAPKVFKGAFPDFEDPIAADELAGLACEEEVSSRVVVTKGNDWEVISGPFEDYDRFGETHWQLLVQAVNHWYPESQPLVEAFRFLPDWRFDDLMVSFATPQGGVGPHIDNYDVFIIQGEGQRRWTVGPKGNYQRRGGVTTSPLIEDFEPIIDVVLEKGDVLYIPPGFPHQGETLTLALSYSMGYRAPSQQELAGQIADQLMDEDKGHKRFIAVDGAASHGTVSLAEQQGIMQLIRDLCNDTDNVVKVLGKLLSQNRFDLDIQEDESIDADALVEALNEGAVLMRIGGLKVLKMEGDSQARLFVAGESVIIEGASEEELIEVSNSVNVNAELAQLPHWQGFFVQMLQKGYFYLGED | not soluble |
| MPEHTKVSAEDQALLNKFARSYQTQTQLKADVKEAKTLIDNINEASDEILLLDDEDSASIPCRIGSCFVHFNGDSLNEHLEGKKTTAEKVLSEKTSELDAISADMEQIKKVLYAKFGDQINLDAEE | soluble |
| MFILSLLHDTVAIQPHQLSSDQQIVIKKRLNERLANKIIPDLGLCICVYDINEIGDSYILPGEGDCRARVKFRMIVFRPFVDEVIEAKVIGSSRQGLCLTIQFFEDIFVPAEKLPEPHVFEEEGQVWYWEYAQEDGEPPAKLYMDPGKIVRFRVTEIIFKDLKPELTHEERKTEKSMEIKGTMASTGLGCIGWWAAEDEDDEAVEDEQDEQEEVIQPKEEIRQPQEEVRQPVKIKEEPV | not soluble |
